Results published in patent US20210032329A1 (VACCINEX, published 2021).

What was measured:
[1] = biological target: T1, cynomolgus monkey SEMA4D-His (cynomolgus monkey); assay: receptor blocking; antibody dilution series pre-incubated with SEMA4D-His, binding to 293PLXNB1 cells (Plexin B1) read by flow cytometry
T1 construct: also called Cyno SEMA4D
Procedure: (§1) After washing, the cells were stained with anti-6xHis-APC (30 min, 4° C.), washed and analyzed by flow cytometry on FACS Canto II.

human SEMA4D-His = biological target: T2, human SEMA4D-His (human, UniProt Q92854 22-734, limits assumed); assay: as above
T2 construct: also called CD100-His; not shown: His tag, detected with anti-6xHis-APC
T2 sequence (looked up): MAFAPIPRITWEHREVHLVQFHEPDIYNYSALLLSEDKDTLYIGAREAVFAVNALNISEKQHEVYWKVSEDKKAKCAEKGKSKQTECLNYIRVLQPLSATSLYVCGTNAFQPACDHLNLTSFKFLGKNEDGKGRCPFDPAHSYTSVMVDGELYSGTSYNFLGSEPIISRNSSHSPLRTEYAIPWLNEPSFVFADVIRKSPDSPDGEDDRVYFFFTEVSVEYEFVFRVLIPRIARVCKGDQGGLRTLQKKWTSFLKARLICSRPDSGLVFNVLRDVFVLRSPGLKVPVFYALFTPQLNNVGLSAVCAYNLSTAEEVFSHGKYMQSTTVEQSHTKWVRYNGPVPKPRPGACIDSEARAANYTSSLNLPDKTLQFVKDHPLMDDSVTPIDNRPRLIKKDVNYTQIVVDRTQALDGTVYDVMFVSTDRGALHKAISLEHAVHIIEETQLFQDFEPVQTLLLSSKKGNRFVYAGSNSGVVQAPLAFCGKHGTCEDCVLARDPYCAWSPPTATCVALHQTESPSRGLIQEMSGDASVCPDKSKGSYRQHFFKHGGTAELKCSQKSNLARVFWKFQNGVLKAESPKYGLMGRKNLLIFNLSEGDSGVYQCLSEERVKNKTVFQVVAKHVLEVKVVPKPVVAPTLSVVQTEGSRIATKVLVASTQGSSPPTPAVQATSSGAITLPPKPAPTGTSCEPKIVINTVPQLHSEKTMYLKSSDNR
Procedure: as §1

mouse SEMA4D-His = biological target: T3, mouse SEMA4D-His (mouse, UniProt O09126 24-733, limits assumed); assay: as above
T3 construct: not shown: His tag, detected with anti-6xHis-APC
T3 sequence (looked up): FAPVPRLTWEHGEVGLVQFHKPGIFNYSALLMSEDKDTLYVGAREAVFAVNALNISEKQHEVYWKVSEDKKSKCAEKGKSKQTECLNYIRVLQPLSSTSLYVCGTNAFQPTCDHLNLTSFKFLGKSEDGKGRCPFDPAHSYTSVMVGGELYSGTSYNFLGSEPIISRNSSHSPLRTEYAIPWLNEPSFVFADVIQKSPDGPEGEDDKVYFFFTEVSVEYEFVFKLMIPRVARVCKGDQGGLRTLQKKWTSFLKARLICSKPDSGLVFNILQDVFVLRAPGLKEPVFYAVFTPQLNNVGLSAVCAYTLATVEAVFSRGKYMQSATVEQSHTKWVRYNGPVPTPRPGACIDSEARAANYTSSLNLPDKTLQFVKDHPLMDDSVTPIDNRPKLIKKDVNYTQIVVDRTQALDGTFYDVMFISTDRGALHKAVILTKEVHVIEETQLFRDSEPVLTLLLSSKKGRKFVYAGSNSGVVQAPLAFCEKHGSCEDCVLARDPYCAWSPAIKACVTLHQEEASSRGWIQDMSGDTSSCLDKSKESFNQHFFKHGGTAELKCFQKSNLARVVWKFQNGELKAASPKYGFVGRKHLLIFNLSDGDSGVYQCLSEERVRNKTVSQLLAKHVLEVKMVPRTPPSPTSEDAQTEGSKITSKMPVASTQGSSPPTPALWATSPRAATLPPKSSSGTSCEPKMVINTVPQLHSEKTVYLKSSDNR
Procedure: as §1

rat SEMA4D-His = biological target: T4, rat SEMA4D-His (rat, UniProt A0A8I6G5Q1 23-734); assay: as above
T4 construct: not shown: His tag, detected with anti-6xHis-APC
Procedure: as §1

marmoset SEMA4D-His = biological target: T5, marmoset SEMA4D-His (marmoset, UniProt A0A8I3W811 22-734); assay: BIACORE; antibody captured with goat anti-human IgG Fc, marmoset SEMA4D-His as analyte
T5 construct: also called CD100-His; not shown: His tag
T5 sequence: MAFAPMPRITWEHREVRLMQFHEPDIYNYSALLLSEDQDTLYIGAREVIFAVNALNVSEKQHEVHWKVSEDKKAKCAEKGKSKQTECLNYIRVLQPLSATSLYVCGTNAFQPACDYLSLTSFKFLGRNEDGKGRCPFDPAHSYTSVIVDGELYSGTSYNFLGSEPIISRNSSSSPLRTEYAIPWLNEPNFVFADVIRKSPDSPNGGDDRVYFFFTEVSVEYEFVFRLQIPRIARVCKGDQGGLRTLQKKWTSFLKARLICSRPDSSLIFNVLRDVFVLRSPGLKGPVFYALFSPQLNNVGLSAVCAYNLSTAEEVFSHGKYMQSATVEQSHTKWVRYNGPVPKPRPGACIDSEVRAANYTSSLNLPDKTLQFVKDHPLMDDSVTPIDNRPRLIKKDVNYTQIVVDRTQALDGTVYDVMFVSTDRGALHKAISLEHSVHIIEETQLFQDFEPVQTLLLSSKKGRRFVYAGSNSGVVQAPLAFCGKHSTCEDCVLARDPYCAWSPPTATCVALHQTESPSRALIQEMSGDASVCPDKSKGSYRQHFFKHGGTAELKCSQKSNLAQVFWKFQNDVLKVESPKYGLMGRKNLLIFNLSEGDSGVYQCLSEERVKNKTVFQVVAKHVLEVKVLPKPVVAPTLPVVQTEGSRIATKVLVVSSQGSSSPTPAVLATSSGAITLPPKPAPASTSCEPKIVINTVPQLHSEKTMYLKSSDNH
Procedure: The binding characteristics of MAb D2517 were determined by BIACORE assay, as follows.

- EC50 [1]: 1.2 nM
- EC50 (human SEMA4D-His): 1 nM
- EC50 (mouse SEMA4D-His): 1.2 nM
- EC50 (rat SEMA4D-His): 1.5 nM
- Ka (marmoset SEMA4D-His): 2.47e+08 M⁻¹
- Kd (marmoset SEMA4D-His): 4 nM
- koff (marmoset SEMA4D-His): 0.0032 s⁻¹
- kon (marmoset SEMA4D-His): 789000 M⁻¹ s⁻¹
B1: MAb D2517 (antibody, V domains shown)
VH: EVQLVESGGGLVQPGGSLRLSCAASGFIFSDYWMVWVRQAPGKGLEYVAHMNQDGGARYYAESVRGRFTISRDNAKNSLYLQMNSLRAEDTAVYYCARDPWGYDSWGQGTLVT
VL: not shown
